Laboratory results taken from the RNAGym collection of RNA variant scans (doi:10.1073/pnas.2313332121).
This sample holds only a part of the variants without activity.

B1: TPR 5TU (parent)
chain: GGAUCUUCUCGAUCUAACAAAAAAGACAAAUCUGCCACAAAGCUUGAGAGCAUCUUCGGAUGCAGAGGCGGCAGCCUUCGGUGGCGCGAUAGCGCCAACGUUCUCAACUAUGACACGCAAAACGCGUGCUCCGUUGAAUGGAGUUUAUCAUG

Variants of: B1
Test: polymerase ribozyme fitness, log enrichment relative to wild type (log ratio); higher = more active; in vitro selection for triplet polymerase activity
Outline: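 Only genotypes with ≥10 input reads and ≥1 read per output were kept after Illumina sequencing of input and output libraries. These libraries were PCR-built, transcribed mutants of each subunit of a heterodimeric triplet polymerase ribozyme, each put through one triplicate in vitro selection round with frozen incubation at −7 °C, gel excision of extended constructs, streptavidin-bead capture and RT-PCR. Fitness is a logarithmic ratio of genotype enrichment to wild-type enrichment, from inverse-variance-weighted replicate averages, with the logarithm in base 2.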

| Variant | polymerase ribozyme fitness (log ratio) |
| --- | --- |
| C43U C54U G140U | ≤ -4.2 |
| C43U G71A U82A C95A A97U C103A G126A C149U | ≤ -4.2 |
| G42A C76U G81U G83C A110U C114G | ≤ -4.2 |
| U44A A107U | -0.956 |
| G42C G46A C75G A91G U102G G133U G152A | ≤ -4.2 |
| C43G G50A C85U | ≤ -4.2 |
| U44A A47C C57U G128C | ≤ -4.2 |
| U44A C72A C87U C99G U135A | ≤ -4.2 |
| C43G | -4.17 |
| C43U | -4.01 |
| C43A | -4 |
| G42A C69G C72G C96U G143A | ≤ -4.2 |
| G42A A52C G94U A97G U144A | ≤ -4.2 |
| G42U G58A G70U A73G G84U C85U U144G A150U | ≤ -4.2 |
| G42C G143C | ≤ -4.2 |
| C43U C51A G86U G126A A137C | ≤ -4.2 |
| C43G C54A C93U A107G | ≤ -4.2 |
| U44A A47C A52G C79U C85U C118U | ≤ -4.2 |
| G42U C76A G81A G124C | ≤ -4.2 |
| G42C U56G G68U U78A C93U A142C | ≤ -4.2 |
| A41U G46A U61A G84U C105U C118U | -3.26 |

| Variant | polymerase ribozyme fitness (log ratio) |
| --- | --- |
| G42U G59A | ≤ -4.2 |
| G42A A49C G62C U77C G88A C96A C132G | ≤ -4.2 |
| G42A C54G A91U | ≤ -4.2 |
| A41U G81A | -0.718 |
| C43U G80U C93G C99G | ≤ -4.2 |
| C43A C54U G71C C103U A115U G117U | ≤ -4.2 |
| C43A C63U C69A G94A C123A U134A G141C | ≤ -4.2 |
| G42C G133C G143C | ≤ -4.2 |
| A41U G86A A89U C114U | -4.16 |
| G42A G46U U82A A121U | -4.16 |
| C43G U53A G81U U82C | ≤ -4.2 |
| C43U G58A G86A U90G U144A | ≤ -4.2 |
| G42U C63U G68A C95U G112U U146G | ≤ -4.2 |
| G42C G84A A122U | ≤ -4.2 |
| C43U G50A G80C C95A A121U A150C | ≤ -4.2 |
| U44A A49C C54G C57U G58C C95G C96U | ≤ -4.2 |
| G42A G59U | -3.95 |
| G42U G68C G94U | ≤ -4.2 |
| C43U U53A | ≤ -4.2 |
| G42C C95U | -4.14 |
| G42U C116A U135G | ≤ -4.2 |

| Variant | polymerase ribozyme fitness (log ratio) |
| --- | --- |
| G42U C54G C57U G65A G92C A110C | ≤ -4.2 |
| G42C A60G C79A C87U C105G C118A G124C | ≤ -4.2 |
| A41U G92A | -3.1 |
| G42C U111A | ≤ -4.2 |
| G42U C93A C96U | ≤ -4.2 |
| G42C U53G G71A G92C C105G A137G | ≤ -4.2 |
| G42U A98G U139C | ≤ -4.2 |
| A41U G42C C76G | ≤ -4.2 |
| U44A C57A C93A G133C | ≤ -4.2 |
| G42C U55A | -4.09 |
| C43U U45A G86A A115C C118G | ≤ -4.2 |
| A41U U56A G84U C118A C125G | -4.09 |
| G42C U45A C79A G86A U104C A107C | ≤ -4.2 |
| A41U G74U C75A A91G U145A U151G | ≤ -4.2 |
| C43U U45G G46C A49U U82A A89U C108G | ≤ -4.2 |
| G42U A52C A66G C76A U90G C95A A106C C108G | ≤ -4.2 |
| G42U G65C G70A C76A G86U U139G A142U | ≤ -4.2 |
| A41U G88C | ≤ -4.2 |
| G42U U55A | -4.17 |
| C43G C85U C99U A120C G128U A147U | ≤ -4.2 |
| G42A U61A G86A | ≤ -4.2 |

| Variant | polymerase ribozyme fitness (log ratio) |
| --- | --- |
| U44A A66U C85A | ≤ -4.2 |
| U44A A137U | -3.68 |
| C43U C116G | -3.65 |
| C43U G88A G94A A122G | ≤ -4.2 |
| G42C U56A C85U C95A U127C G143U | ≤ -4.2 |
| G42C C75G | ≤ -4.2 |
| C43U U45G C131A G136U | ≤ -4.2 |
| G42A G88A C96A C118G G126U | ≤ -4.2 |
| G42C G59A C93G A106C | ≤ -4.2 |
| A41U G92U G141A | -1.22 |
| A41U C123G | -1.42 |
| G42U A91U | ≤ -4.2 |
| C43U C85G G88A C93G A97U C125A C132G G140C | ≤ -4.2 |
| A41U G46A G59A G86C | ≤ -4.2 |
| A41U C85U A122G | -1.39 |
| C43G A97U C123U C125A U148G | ≤ -4.2 |
| G42U C76A C93U C96U U145C | ≤ -4.2 |
| G42U C43G G86U G94U U144A | ≤ -4.2 |
| G42A G46U U55G C72G | ≤ -4.2 |
| G42A A66U A89G U145A | ≤ -4.2 |
